Results reported in PMC6630525.

How the values were obtained:
[1] = target: full-length Arabidopsis thaliana NAP1-Related Protein 1 (AtNRP1-His) (Arabidopsis thaliana) (UniProt Q9CA59); test: ITC; H2A-H2B (200-210 µM) in the syringe, AtNRP1/AtNRP2 (20 µM) in the cell; 25 °C; 20 mM PIPES pH 7.4, 300 mM NaCl; sequential binding site model
[2] = target: full-length Arabidopsis thaliana NAP1-Related Protein 2 (AtNRP2-His) (Arabidopsis thaliana) (UniProt Q8LC68); test: as above
[3] = target: full-length Arabidopsis thaliana NAP1-Related Protein 1 (AtNRP1-His) (Arabidopsis thaliana) (UniProt Q9CA59); test: native gel or EMSA; native polyacrylamide gel; increasing amounts of H2A-H2B dimer titrated into a constant amount (5 µM) of AtNRP1/2 proteins
[4] = target: full-length Arabidopsis thaliana NAP1-Related Protein 2 (AtNRP2-His) (Arabidopsis thaliana) (UniProt Q8LC68); test: as above

Sequence of full-length Arabidopsis thaliana NAP1-Related Protein 2 (AtNRP2-His) (Arabidopsis thaliana) (Q8LC68 other isoform, or with tags, fused parts or gaps): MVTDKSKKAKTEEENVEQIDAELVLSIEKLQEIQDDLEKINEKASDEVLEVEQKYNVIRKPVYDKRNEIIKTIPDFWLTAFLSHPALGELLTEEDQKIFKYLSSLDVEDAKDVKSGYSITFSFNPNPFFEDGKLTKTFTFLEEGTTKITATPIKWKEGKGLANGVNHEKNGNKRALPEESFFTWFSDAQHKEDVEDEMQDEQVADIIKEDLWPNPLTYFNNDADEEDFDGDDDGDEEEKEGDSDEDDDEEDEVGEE
Sequence of Arabidopsis thaliana histone H2A-H2B dimer (Q9LD28 whole entry): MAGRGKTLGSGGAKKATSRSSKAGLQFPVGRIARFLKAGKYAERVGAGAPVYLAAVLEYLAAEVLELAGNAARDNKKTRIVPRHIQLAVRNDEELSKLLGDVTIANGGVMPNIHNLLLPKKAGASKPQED
Sequence of Arabidopsis thaliana histone H2A-H2B dimer (Q9LQQ4 whole entry): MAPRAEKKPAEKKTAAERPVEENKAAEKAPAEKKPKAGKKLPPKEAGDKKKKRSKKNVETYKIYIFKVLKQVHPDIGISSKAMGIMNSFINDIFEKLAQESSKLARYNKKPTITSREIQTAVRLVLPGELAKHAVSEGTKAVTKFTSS
Sequence of full-length Arabidopsis thaliana NAP1-Related Protein 1 (AtNRP1-His) (Arabidopsis thaliana) (Q9CA59 whole entry): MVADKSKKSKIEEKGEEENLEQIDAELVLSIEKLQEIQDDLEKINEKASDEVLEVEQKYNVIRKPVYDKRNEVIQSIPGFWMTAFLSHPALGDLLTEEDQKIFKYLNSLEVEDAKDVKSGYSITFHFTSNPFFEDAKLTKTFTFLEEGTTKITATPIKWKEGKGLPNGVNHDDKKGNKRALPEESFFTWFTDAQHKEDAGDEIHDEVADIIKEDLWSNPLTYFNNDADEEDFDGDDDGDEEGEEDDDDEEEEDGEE

Arabidopsis thaliana histone H2A-H2B dimer (from UniProt Q9LD28 1-130; Q9LQQ4 1-148) (complex)
Kd1 (sequential binding model, first site) [1]: 130 nM
Kd2 (sequential binding model, second site) [1]: 2.4 µM
dH1 (sequential binding model, first site) [1]: 8.51 kcal/mol
dH2 (sequential binding model, second site) [1]: 6 kcal/mol
Kd1 (sequential binding model, first site) [2]: 39.6 nM
Kd2 (sequential binding model, second site) [2]: 1 µM
dH1 (sequential binding model, first site) [2]: 7.28 kcal/mol
dH2 (sequential binding model, second site) [2]: 1.33 kcal/mol
stoichiometry N (H2A-H2B dimers per NRP dimer) [3]: 2
stoichiometry N (H2A-H2B dimers per NRP dimer) [4]: 2
